Measured values taken from US20190256836.

System: T1, recombinant Factor C protein from Tachypleus tridentatus produced in Leishmania tarentolae
T1 sequence: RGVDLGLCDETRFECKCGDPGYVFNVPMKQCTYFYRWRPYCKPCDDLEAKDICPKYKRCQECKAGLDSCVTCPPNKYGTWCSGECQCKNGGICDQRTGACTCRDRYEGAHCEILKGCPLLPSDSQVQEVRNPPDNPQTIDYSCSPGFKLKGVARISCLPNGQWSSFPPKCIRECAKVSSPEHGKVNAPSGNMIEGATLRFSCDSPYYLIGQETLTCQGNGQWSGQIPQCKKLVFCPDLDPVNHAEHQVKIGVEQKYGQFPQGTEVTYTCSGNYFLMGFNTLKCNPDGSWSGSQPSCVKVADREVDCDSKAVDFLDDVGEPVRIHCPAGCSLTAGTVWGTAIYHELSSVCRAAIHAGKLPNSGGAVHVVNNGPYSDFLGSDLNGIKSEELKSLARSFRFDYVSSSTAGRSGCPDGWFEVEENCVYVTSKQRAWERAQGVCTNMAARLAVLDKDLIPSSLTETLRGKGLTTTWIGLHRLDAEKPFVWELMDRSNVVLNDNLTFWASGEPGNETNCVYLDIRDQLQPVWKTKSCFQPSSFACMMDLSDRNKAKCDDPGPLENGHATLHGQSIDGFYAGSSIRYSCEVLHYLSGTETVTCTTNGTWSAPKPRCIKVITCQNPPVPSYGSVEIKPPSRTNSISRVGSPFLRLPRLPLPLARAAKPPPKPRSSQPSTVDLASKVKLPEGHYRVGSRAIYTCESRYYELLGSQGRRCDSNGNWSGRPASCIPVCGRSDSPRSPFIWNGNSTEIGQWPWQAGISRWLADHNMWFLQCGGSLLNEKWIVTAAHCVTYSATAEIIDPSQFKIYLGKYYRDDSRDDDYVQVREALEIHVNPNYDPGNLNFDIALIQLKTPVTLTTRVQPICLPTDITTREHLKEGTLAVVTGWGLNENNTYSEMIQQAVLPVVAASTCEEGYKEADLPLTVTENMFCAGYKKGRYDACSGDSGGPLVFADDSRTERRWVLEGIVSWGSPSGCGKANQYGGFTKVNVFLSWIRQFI
Conditions: in U/mg

## chymotrypsin
  specific activity of activated Factor C (hydrolysis of Boc-Val-Pro-Arg-AMC) (Units/mg protein): 0.658
